# The nanobody polyreactivity screen of Harvey et al. (2022)
# Test: yeast display, Sf9 membrane polyspecificity reagent, FACS + sequencing; frameworks hold sequencing errors
# Outline: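 In a synthetic yeast display library (Saccharomyces cerevisiae BJ5465), nanobody expression was induced with galactose for 36–48 hours. FACS gates were set low and high (top ~1%) using anti-HA fluorescence for expression and streptavidin fluorescence for binding of the Sf9 membrane reagent. Each polyreactivity label is drawn from the gate of origin.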
row,Sequence,polyreactivity (PSR sort gate)
1,QVQLVESGGGLVQAGGRLRLSCAASGRTFDRMLMGWYRQAPGKERELVAAITSGGRTNYADSVKGRFTISRDNAKNTVYLQMNSLKPEDTAVYYCAKRASALLRHSYDYWGQGTQVTVSS,low polyreactivity
2,QVQLVESGGGLVQAGGRLRLSCAASGRTFGWYAMGWYRQAPGKERELVASITQRGGRTYYADSVKGRFTISRDNAKNTVYLQMNSLKPEDTAVYYCAAKTSPGMYYWGQGTQVTVSS,high polyreactivity
3,QVQLVESGGGLVQAGGRLRLSCAASGRTFPWNVMGWYRQAPGKERELVAAISWSSGRTYYADSVKGRFTISRDNAKNTVYLQMNSLKPDDTAVYYCAKRYRPYRGNSGNDYWGQGTQVTVSS,high polyreactivity
4,QVQLVESGGGLVQAGGRLRLSCAASGRTFRGYAMGWYRQAPGKERELVAAITSGGSTNYADSVKGRFTISRDNAKYTVYLQMTSLKPEDTAVYYCAAEPYSWDTWVDYDYWGQGTQVTVSS,low polyreactivity
5,QVQLVESGGGLVQAGGRLRLSCAASGRTFRPYAMGWYRQAPGKERELVAAITSGGSTYYADSVKGRFTISRDNAKNTVYFQMNSLKPEDTAVYYCNAKYYYQPPYDYWGQGTQVTVSS,low polyreactivity
6,QVQLVESGGGLVQAGGRLRLSCAASGRTFTVYAMGWYRQAPGKEREFVAAITERGGSTYYADSVKGRFTISRDNAKNTVYLKMNSLKPEDTSVYYFAAVFYWRPGWYVRFDYWGQGTQVTVSS,low polyreactivity
7,QVQLVESGGGLVQAGGRLRLSCAASGRTFVQYAIAWYRQAPGKEREFVAAISSRVGSTYYADSVKGRFTISRDNAKNTVYLQMNSLKPEDTAVYYCNRDLVPRFDYWGQGTQVTVSS,low polyreactivity
8,QVQLVESGGGLVQAGGRLRLSCAASGSICEPYVMGWYIQAPGKERELVAAIRQTGGSTYYADSVKGRFTISRDNAKNTVYLQMNSLKPEDTAVYYCNAEQKPSGLYDYRGVEGEMGYWGQGTQVTVSS,low polyreactivity
9,QVQLVESGGGLVQAGGRLRLSCAASGSIFEGYVMGWYRQAPGKERELVAAITTGGGSTYYADSVKGRFTISRDNAKNTVYLQMNSLKPEDTAVYYCAKDGGRWGQGTQVTVSS,low polyreactivity
10,QVQLVESGGGLVQAGGRLRLSCAASGSIFGEYAMGWYRQAPGKERELVADITTGGNTNYADSVKGRFTISRDNAKNTVYLQMNSLKPEDTAVYYCNAYGNTYGYWWFGYWGQGTQVTVSS,low polyreactivity
11,QVQLVESGGGLVQAGGRLRLSCAASGSIFGFYAMGWYRPAPGKERELVAGISVSDGSTYYADSVKGRFTISRDNAKNTVYLQMNSLKPEDTAVYYCAASPRGSYGYYYWGQGTQVTVSS,low polyreactivity
12,QVQLVESGGGLVQAGGRLRLSCAASGSIFITYAMGWYRQAPGKEMELVAAIRDSGDRTYYADSVKGRFTISRDNAKNTVYLQMNSLKPEDTAVYYCNARWQEPLKYDYWGQGTQVTVSS,low polyreactivity
13,QVQLVESGGGLVQAGGRLRLSCAASGSIFQYNAMGWSRQAPGKERELVAAISRSGGSTYYADSVKGRFTISRDNAKNTVYLQMNSLKPEDTAVYYCHAVLGYYSPYDYWGQGTQVTVSS,low polyreactivity
14,QVQLVESGGGLVQAGGRLRLSCAASGSIFRIYTMGWYRQEPGKERELVAAINSGGSTNYADSVKGRFTISRDNAKNTVYLQMNSLKPEDTAVYYCAATWWQYDQGLHRYDYWGQGTQVTVSS,high polyreactivity
15,QVQLVESGGGLVQAGGRLRLSCAASGSIFRSNAMGWYRLAPGKEREFVAASTRSGGSTYYADTVKGRFTISRDNAKNTVYLQMNSLKPAATAVYYCAADWKSYAYYYWGQGTQVTVSS,high polyreactivity
16,QVQLVESGGGLVQAGGRLRLSCAASGSIFSSNAMGWYRQAPGKERELVASIRGSGVSTYYADSVKGRFTISRDNAKNTVYLQMNSMKPEDTAVYYCAARYGRSYFGYYFWGQGTQVTVSS,high polyreactivity
17,QVQLVESGGGLVQAGGRLRLSCAASGSISASYAMGWSRQAPGKERELVAAITSGGSTYYADSVKGRFTFSRDNAKNTVYFQMNSLKPEETAVYYCAKRPKRTYYPHIGYDYWGQGTQVTVSS,low polyreactivity
18,QVQLVESGGGLVQAGGRLRLSCAASGSISYFNDMGWYRQAPGKERELVAAIRDSGGITYADSVKGRFTISRDNAKNTVYLQMNSLKPEDTAVYYCATYGNEIYDYWGQGTQVTVSS,low polyreactivity
19,QVQLVESGGGLVQAGGRLRLSCAASGSIVGLYVMGWYRQAPGKERELVATITSGGSTYYADSVKGRFTISRDNAKNTDYLQMNSLKPEDTAVYYSAADPQDAADLPDLFYDYDYWGQGTQVTVSS,low polyreactivity
20,QVQLVESGGGLVQAGGRLRLSCAASGSTFAIYGMGWYRQAPGKERELVAGITRGGSTNYADSVKGRFTISRDNAKNTVYLQMNSLKPEDTAVYYCNSPFGVRRFKTKGRSHYEYWGQGTQVTVSS,high polyreactivity
21,QVQLVESGGGLVQAGGRLRLSCAASGSTFEEYAMGWYRQAPGKERELVAGITWGGGSTYYADSVKGRFTISRDNAKNTVYLQMNSQKPEDTAVYYCAAEPGWYADTPASDSKYDYWGQGTQGTVSS,low polyreactivity

row,Sequence,polyreactivity (PSR sort gate)
1,QVQLVESGGGLVQAGGRLRLSCAASGSTFGYYARGWYRQAPGKERELVAAISTSSGSKYFADSVKGRFTISRDNAKNTVYLQMNSLKPEDTAVYYCNARKASYRSIYYYWGQGTQVTVSS,high polyreactivity
2,QVQLVESGGGLVQAGGRLRLSCAASGSTFIDYAMGWYRPAPGKERELVAAITNGGNTKYADSVKGRFTISRDNAKNTVYLQMKSLKPEDTSVDYCSREPSIFTSSYDYWGQGTQVTVSS,low polyreactivity
3,QVQLVESGGGLVQAGGRLRLSCAASGSTFIYYAMGWYRQAPGKERELVAAITGRGTRTYYADSVKGRFTISRDNAKNTVYLQMNSLKPEDTAVYYCNTLQTYLYDYWGQGTQVTVSS,high polyreactivity
4,QVQLVESGGGLVQAGGRLRLSCAASGSTFQRYAMGWYRQAPGKDRELVAAISSTGGSTFYADSVKGRFTISRDTAKNTVYLHMNSLKPEDTAVYYCNKYRATNSARDYWGQGTQVTVSS,high polyreactivity
5,QVQLVESGGGLVQAGGRLRLSCAASGSTFSDYAMGWYRQAPGKERELVADISRSGASTYYADSVKGRFTISRYNAKNTVYLQMNSLKPEDTPVYSSNKAYSGVRYDSWGPGTQVTVSS,low polyreactivity
6,QVQLVESGGGLVQAGGRLRLSCAASGSTFVWYAMVWYRQAPGKEREFVATISWSDGSTYYADSVKGRFTISRDNAKNTVYLQLNSLIPEDTAVYYCASDVDRFFTYKYDYWGQGTQVTVSS,low polyreactivity
7,QVQLVESGGGLVQAGGRLRLSCAASGSTIPRNAMGWYRHAPGKERELVAAITSGGSTNYADSVKGRFTISRDNAKNTVYLQMNSLKPEDTAVYYCAADEQVNTQYVVWGDYWGQGTQVTVSS,low polyreactivity
8,QVQLVESGGGLVQAGGRLRLSCAASGSTLIRNVMGWYRQAPGKERELVAAINTRGTTTYYADSVKGRFTISRDKAKNTVYLQMNSLKPEDTAVSYCAARTPHYSYGYWGQGTHVTVSS,high polyreactivity
9,QVQLVESGGGLVQAGGRLRLSCAASGSTLSGNAMGGYRQAPGKERELVAAITSSGGRTYYADSVKGRFTISRDNAKNTVYLQMNSLKPEDTAVYYCAKDRYGWGQGTQVTVSS,high polyreactivity
10,QVQLVESGGGLVQAGGRLRLSCAASGSTSQSNAMGWYRQAPGKERELVAAISWSGTSTYYADSVKGRFTISRDNAKNTVYLQMNSLKPEDTAVYYCAADYIFDYDYWGQGTQVTVSS,low polyreactivity
11,QVQLVESGGGLVQAGGRLRLSCAASGTIFPLNAMGWYRQAPGKERELVATISSGGSTYYADSVKGRFTISRDNAKNTVYLQMNSLKPEFTAVYYCAADSWVQFEYWGQGTQVTVSS,low polyreactivity
12,QVQLVESGGGLVQAGGRLRLSCAASGTTAENVMGWYRQAPGKERELVAAISSRGGSTYYADSVKGRFTISRDNAKNTVYLQKNSLKPEDTAVYYCAAEYVSHFSGYRYDYWGQGTHVTVSS,low polyreactivity
13,QVQLVESGGGLVQAGGRLRLSCAASGTTFFLYAMGWYRQAPGKERELVASISDGSSTNYADSVKVRFTISRDNAKNTVYLQMNSLKPEDTAVYYCAADFERRRYDYWGQGTQVTVSS,low polyreactivity
14,QVQLVESGGGLVQAGGRLRLSCAASGYIFNYDMGWYRPAPGKERELVAAINYSGRTYYADSVKGRFTISRDNAKNTVYLQMNRLKAEDTAVYYCAARIIVDDVGTKYYYWGQGTQVTVSS,high polyreactivity
15,QVQLVESGGGLVQAGGRLRLSCAASGYTFSIYDMGWYRPAPGKERELVAAISWSGGSTYYADSVKGRFTISRDHAKNTVYLQMNSLKPEDTAVYYCAAKRHGSEVGRGRDYWGQGTQVTVSS,high polyreactivity
16,QVQLVESGGGLVQAGGRLRLSCADSGRIFLYYAKGWYRQAPGKEPELVAAISGGGGRTYYADSVKGRFTISRDNAKNTVYLQMNSLKPEDTAVYYWAAGVYTGQHEFDYWGQGTQVTVSS,low polyreactivity
17,QVQLVESGGGLVQAGGRLRLSCAPSGTTFNPYTMGLYRQAPGKEGELVATITRIGGSTYYADSVKGRFTISRDNAKNTVYLQMNSLKPEDTAVYYCAADHYRSVRWRSNYTYRVNYWGQGTQVTVSS,high polyreactivity
18,QVQLVESGGGLVQAGGRLRLSCASSGITFWTYAMGWYRQAPGKERELVAAISKSGGSTYYADSVKGRYTISRDNAKNNVYFELNSLKPEDTAVYYCAAKGLRYRDIDYDYWGQGTQVTVSS,low polyreactivity
19,QVQLVESGGGLVQAGGRLRLSSAASGRTFFGSYAMGWYRQAPGKERELVADIRSGGNTNYADSVKGRFTISRDNAKNTVYLQMNRLKPDDTAVYYCASDGYSIVVYHPDYRYVYWGQGTQLTVSS,low polyreactivity
20,QVQLVESGGGLVQAGGRLRLTCAASGFTFRYYAMGWYRQAPGKERELVATITRGGSTNYAESVKWRFTISRDNAKNTVYFQMNSLKPEDTAVYYCATGKIYWRGYEYWGQGTQVTVSS,high polyreactivity
